The text below walks through data of PMC3942486 (2014).

This assay addresses BCL6-POZ domain (residues 7 to 128 of human BCL6, C8Q, C67R, C84N) (human, UniProt P41182 7-128, cysteine8 mutated to glutamine | cysteine67 mutated to arginine | cysteine84 …). Kind of assay: FP.

B1: styryl-SMRT peptide, labelled with BODIPY TMR (peptide)
chain: LVATVKEAGRSIXEIPR
modifications: styrylalanine in place of histidine1426; BODIPY TMR dye coupled via the amino-terminal cysteine
One may read the Kd as the equilibrium constant for the complex coming apart. Low readings indicate tighter binding, high ones weaker binding. For the molecule B1, the Kd was determined as 41 µM.

B2: homophenylalanine-SMRT peptide, labelled with BODIPY TMR (peptide)
chain: LVATVKEAGRSIXEIPR
modifications: homophenylalanine in place of histidine1426; BODIPY TMR dye coupled via the amino-terminal cysteine
The molecule B2 had a Kd of 43 µM.
